Reference: a protein production outcome set (Wang et al. 2014)

assay: label from the status in PepcDB records

Sequence	protein production
MDLLATRGDPVSDFSVGRVRGRHLAVPPIRHSAAPSNRHSEAPSSRARAADLDAIRLTGIAAVVVGHVWTSGPFTDALFAWHVPVFFILTGYLWKSGRTVRDEISRRSKTLLVPYVAWLAVLSVAFASVEYLRGGSLPVEALRNAVYGGAFAVRPYSAFWFVPVLFFTAVLFRWLERFPPWMAWIIAGLGLAASVFAGEVMAKTPLGIALAVPCLVFVLVGRALPAMVHRVRYKTAVGVGLVLAGVALTVGGVVQPLNMKDGDFGTVALSVVNASAISLGLILVFAALYRMVSPAVNRLTIQLASAGLVVVLTHAFFLYLLNTPASGSIFDAVVALAVPFALALLVLRSPLRRWLVG	failed
MDLLLKAALGAAVVVILAALAKTRNYYIAGLVPLFPTFALIAHYIVGKGRSLDDLKTTILFGMWSIIPYFVYLATLYVMVDRLRLEASLAVAAVAWLIAATILVSVWVRLHA	failed
MDLLQFLIDKNNVFIVAVAVVSGIMLMLPALRKGRAGAAVGTSEAIQMVNQRQAVWVDVRPTEQFQAGHIAQARSLPAADLEKKAGALPKNKPLIVVCEQGRDAARIAARLRSQGFAEVSVLEGGMRAWFAAGLPVTQKG	failed
MDLNFSKEEIAFRDEVRQFFKDNVPAKTRQKLIEGRHNTKEEMVEWYRILNKKGWAVTHWPKEYGGTGWSSVQHYIFNEELQAAPAPQPLAFGVSMVGPVIYTFGSEEQKKRFLPRIANVDDWWCQGFSEPGSGSDLASLKTKAEKKGDKWIINGQKTWTTLAQHADWIFCLCRTDPAAKKQEGISFILVDMKTKGITVRPIQTIDGGHEVNEVFFDDVEVPLENLVGQENKGWDYAKFLLGNERTGIARVGMSKERIRRIKQLAAQVESGGKPVIEDPKFRDKLAAVEIELKALELTQLRVVADEGKHGKGKPNPASSVLKIKGSEIQQATTELLMEVIGPFAAPYDVHGDDDSNETMDWTAQIAPGYFNNRKVSIYGGSNEIQRNIICKAVLGL	failed
MDLSVVVPTLNARDALLDALDALAAHAPAAEVVVANGPSVDGTSGTVRDHDAVDTLLELSERNLNAARNAGIAATNGTVVAFIGQDTHIQPGWTNAVADAIADGADAVTGPVHRTVEGGVTTESVDEATVSGRDVTFFDGANVAITRRALRALDGFDEALQTGAARDAAHRLAGMDRRVAWAPNACVLRTDADDVIHRLPEDADSSARGLKYRALAYRLTKNYGATAAITARVLRHAVGDAASVGGAVLRGDADLSTWVGAGLAVLPGLWRGSQAGLSARVADRTTTRNPNGVSTRMDRVHARHD	failed
MDLVEKVKELCLELEEENLAKAIERFITLTHGIEKTRGEAFAKASIYGFLEGILTTLKMKYSNEKIETLLNEVKTAREETEALLRKPRPPLLVDNDL	not failed
MDLWKLYQPGTPAAIVAWGQLGTAHAKTTYGLLRHSRLFKPVCVVAEHEGKMASDFVKPVRYDVPVVSSVEKAKEMGAEVLIIGVSNPGGYLEEQIATLVKKALSLGMDVISGLHFKISQQTEFLKIAHENGTRIIDIRIPPLELDVLRGGIYRKKIKVVGVFGTDCVVGKRTTAVQLWERALEKGIKAGFLATGQTGILIGADAGYVIDAVPADFVSGVVEKAVLKLEKTGKEIVFVEGQGALRHPAYGQVTLGLLYGSNPDVVFLVHDPSRDHFESFPEIPKKPDFEEERRLIETLSNAKVIGGVSLNGGFETDLPVYDPFNTDDLDEMLERAMVW	not failed
MDMGNQHPSISRLQEIQREVKAIEPQVVGFSGLSDDKNYKRLERILTKQLFEIDSVDTEGKGDIQQARKRAAQETERLLKELEQNA	not failed
MDMIKPDFQQIRRDKFRVEQMNDFPNTWTQQQHQNIRIPNNLDLIGILQNQISVPVQTDLYQDSAATFMNMPQSIHRDPQGPSNWRISDLSQPSTVNHGYDQAGIRPNNVADLLSDHFSSRNQILDRPLYVGRDSIPQSSMIRRSEVSCLDDNQKGCVTVACSGTGNEILRSSYDQGSSSGSYRGEFSFLPSLENQSVAHNASNWNHGPVNVTATSHTNSKKGFPLSLLSDIPPSRDVGNAAVLSTMNIHGPLGPFTGYASILKSSRFLEPAQKMLEEFCISYASKIISRSESTSMEDDDDDDDNLSGFSSSSEPLEPKNRLKKAKLLFLQEEVCKWYKLYNHQLQTVMSSFNTVAGLNTATPYISLALKRTSRSFKALRTAIAEHVKQISSHSSNGNNNNRFQKRQRSLIGNNVGFESQQQHIWRPQRGLPERAVAVLRAWLFDHFLHPYPTDSDKQMLATQTGLSRNQVSNWFINARVRLWKPMVEEIHTLETKAIKNADTSHNIEPSNRPNTVSSPSHEQTLTGLSGTKRSRLEYMDMVGFNRGNVSLTLELRRGVDNVIQTQTQDHQFGTGSQMFHDFVG	failed
MDMKAPIKVYMTKKLLGVKPSTSVQEASRLMMEFDVGSLVVINDDGNVVGFFTKSDIIRRVIVPGLPYDIPVERIMTRNLITANVNTPLGEVLRKMAEHRIKHILIEEEGKIVGIFTLSDLLEASRRRLETAISAE	not failed
MDMKKHGLSIGINRIESVFFVTLKAIGTLTHEDYLVITPMLEGALSQVDQPKVSLFLDATELDGWDLRAAWDDLKLGLKHKSEFERVAILGNKDWQEWAAKIGSWFIAGEIKYFEDEDDALKWLRY	not failed
MDNGDWGYMMTDPVTLNVGGHLYTTSLTTLTRYPDSMLGAMFGGDFPTARDPQGNYFIDRDGPLFRYVLNFLRTSELTLPLDFKEFDLLRKEADFYQIEPLIQCLNDPKPLYPMDTFEEVVELSSTRKLSKYSNPVAVIITQLTITTKVHSLLEGISNYFTKWNKHMMDTRDCQVSFTFGPCDYHQEVSLRVHLMEYITKQGFTIRNTRVHHMSERANENTVEHNWTFCRLARKTDD	failed
MDNKLPHYSRERLLGEGGMGKVYLAQDNQLQRQVAIKELTYQPKDDEVNHALKEARLLARVNHSNIIQIYNVHDEGDHISLVMEYFNSKTLTQFQQEAYTTLVQKLDLLQQLSAGLAAAHKNGVIHCDLKPSNILVNDQGQLKITDFGIALLASNESQNSEQTASNNPLQFGSLLFMSPEQIKLQAVDYRSDIFSFGIIAYQLMVGSHPFAYGNNGGSATDVAKRICEHTPEHAKNLMLNAPSALTDLLMEMLVKPLEQRTLTAEAIENRLKHIRTALLQAEISEQATMPLSSGSANIAGDDTGQYTQAVHTTLLSQNTQIVQPADNLQASWFKQNYKTVASIALLCLVMILFVGFYNTQEVETKQVVILKPTLADSSLMAPMQQDLVISAVEDALRQAVINTKNMYLISQREVNAITKEYPDDLNKLRQAVGASDIISTTLECDNSRCKVSFSRLVVNDNSSDNLSVKSEKNWLAPVDKFNAIFSTSQTQFASLFPEESEVNQSGLVQRPINENDYRNYIELYSQIKGQGEYSVESLTKLETLLTRSPYLYAAYGLFRETASNLYTDSRDEIHLKRLELVLQNSPPEYRYSVYHAIDSFFVAYKIKELDTAQQQIIEAKNKGASSFVLSELNAILFFSKGQYQKAADTFEEALVLRPSTTLLYNLAFSYWRMGDLSKAEDALNKMLEIIPGNYKAQQLQANIWLLQGKLELAITAYEKIVAALSNGRDLTNLSLAYALNKQYKKSLIYAKKAVDLSPKNRIRRLNLADIEFILGRVKSSNFNYKKVIDAPVDNNKYRYWLDIAQAQLQLNQQNLAIEALNKAKHLAPDNGEVAYTSALVYSVLGERVSAIFEVNKALANKVGSVWFNLPWFDSLCDDKEFELLMVKYNNQKRCRT	failed
MDNKVILVGGFHEIIELCEDNDIEIAGIIDNYLTNDTYWGYPIIGTDDKAKVLFETYKNVPVLITPDVPHVRYKLYHYYKSIGFQVASLISRDASISRSAIIGEGTIIQRGANLSSNIKIGQMVKVNTNANIMHDCLIGNYVTVAPNAVLLGKVEIDDKAYIGANATLLPSVKIGENVTVGAGSVVTKSVRLEHHHHHH	failed
MDNPKGIDGFTNLKEKDIATNENKLLRTITADKMIPAFLITPISSQIAGKVIAQVESDIFAHMGKAVLIPKGSKVIGYYSNNNKMGEYRLDIVWSRIITPHGINIMLTNAKGADIKGYNGLVGELIERNFQRYGVPLLLSTLTNGLLIGITSALNNRGNKEGATNFFGDYLLMQLMRQSGMGINQVVNQILRDKSKIAPIVVIREGSRVFISPNTDIFFPIPRENEVIAEFLK	failed
MDPERDALRIALYYALFSILWILSSDYLVALMFQPHVMVRLSVLKGSLFIILTSLLLYFLLKLYLRSLTDKERALRISEHKFRSLFMELPLGVVLMDTYGRILESNPAMGRFHGDSLDGMLIGEIHPDLEPGPDREFMVRMDGRWLRVVITRIEGGFLGIFEDLTDIKNSEEAARRSLEANRTLLAELHHRVKNNLQIISSLISIQSSKMPREHAEIMRSLQLRIKSIAVIHEMLLSSPESSSISFASYVSGLTGYLRDMYQSAAEFELDVPDVEFNIETAVPLGLIVGELVSNSLRHAFTDGGTIRISLEARDDGFILVVADNGGAFPITSAFRNQPASAWSLLRIW	failed
MDPLALALLPGIGPKRLLEVLKAEDPLGFLRERFPEAWRHLPEAEAQAERERGRAEALGVRLLGLWEEGFPEGLRALPQPPTHLYLKGELPPEREAVALVGTRRASPWALAFARRLARELAEAGLWVVSGLARGIDREAHLGALEAGGRTLGVLGSALDRVYPPENRPLAQRMDLLSEFPFGTGPKPEFFPRRNRLIAGLCRAVVVVEAPLDSGALITARHALELGKEVLAVPGRPTDERSLGANRLIQDGAYPVLSAEDVLSYLGMSARPKPLPGLSPEEEALYALLQEKKEALPEALAMALGIPPERVLSLLTLLELKGLARALPGGRYGPG	failed
MDPLVSFFDGMAQASWLRPVHDRLKKGTGSWANRAVLDVGCGTGRLLARGVHEAAHLAGVDLSKQMVLATEERLHEHKQCGRLTVVQGDAYDLPFADESFDVCLSTCVMFLLPEPERGMKEMIRVLNGAGVIGMLNPTNKMNHAAAKAYCKKSGITGFEEKTLLQWSNVSTRRHRYTAEQLTHFFKQHGAWVVTHELVLDGLAVVTVASWNKLEHHHHHH	failed
MDPSTLMILAIVAVAIIVLAVFFTFVPVMLWISALAAGVKISIFTLVGMRLRRVIPNRVVNPLIKAHKAGLNVGTNQLESHYLAGGNVDRVVNALIAAQRANIELTFERCAAIDLAGRDVLEAVQMSVNPKVIETPFIAGVAMDGIEVKAKARITVRANIERLVGGAGEETIVARVGEGIVSTIGSSDNHKKVLENPDMISQTVLGKGLDSGTAFEILSIDIADVDIGKNIGAILQTDQAEADKNIAQAKAEERRAMAVAQEQEMRARVEEMRAKVVEAEAEVPLAMAEALREGNIGVMDYMNIKNIDADTEMRDSFGKLT	failed
MDPYFELRLSELKSIPVVTWLQFSIDNAREPGILVQSGQIWALLPPELTEKTRCFAIELGNECMRLKDYDNDDGKRVWLSDDELTRFIEQAETPHQRLAFLLAGRVGLRRSEIIEVCPQDLVDGPTGDHIRVWESYAKRDKYREPPVPQEVVTIAETLAYQQDDDEPLLDVAGSTVYRWVRRAADELEEETGDRGWQYLDVHDLRRTWGTYLLEQGVIPSVVMSFGGWEDWDTFRKHYLGEFSPEAIRRERGKVDFLEGGDESAEVVHPGTMPPASHHTAD	failed
MDQFPESVTENFEYDDLAEACYIGDIVVFGTVFLSIFYSVIFAIGLVGNLLVVFALTNSKKPKSVTDIYLLNLALSDLLFVATLPFWTHYLINEKGLHNAMCKFTTAFFFIGFFGSIFFITVISIDRYLAIVLAANSMNNRTVQHGVTISLGVWAAAILVAAPQFMFTKQKENECLGDYPEVLQEIWPVLRNVETNFLGFLLPLLIMSYCYFRIIQTLFSCKNHKKAKAIKLILLVVIVFFLFWTPYNVMIFLETLKLYDFFPSCDMRKDLRLALSVTETVAFSHCCLNPLIYAFAGEKFRRYLYHLYGKCLAVLCGRSVHVDFSSSESQRSRHGSVLSSNFTYHTSDGDALLLL	failed
MDQIFNKVGSYWLGQKANKQFDSVGNDLNSVSTSIEGGTKWLVNKIKGKMQKPLPELLKEYDLPIGIFPGDATNYEFDEETKKLTVLIPSICEVGYKDSSVLKFTTTVTGHLEKGKLTDVEGIKTKVMIWVKVTSISTDASKVYFTAGMKKSRSRDAYEVQRNGLRVDKF	not failed
